Assay results as given in publication doi:10.1101/2025.11.27.690710, “Direct recruitment of RNA Polymerase II by NANOG to activated target genes” (bioRxiv, 2025).

Target: the molecule itself
Experiment: BASIL (Bead Assay of Interacting Ligands); biotinylated oligonucleotide with a single NANOG site on streptavidin beads, incubated with rNANOG at 1mg/ml for 1 hour, washed, then with fluorescein amidite labelled oligonucleotide of the same sequence; fluorescence on the bead only if NANOG is a multimer

B1: Recombinant full length NANOG, purified and refolded (natural protein, mouse, UniProt Q80Z64 1-305, looked up)
chain: MSVGLPGPHSLPSSEEASNSGNASSMPAVFHPENYSCLQGSATEMLCTEAASPRPSSEDLPLQGSPDSSTSPKQKLSSPEADKGPEEEENKVLARKQKMRTVFSQAQLCALKDRFQKQKYLSLQQMQELSSILNLSYKQVKTWFQNQRMKCKRWQKNQWLKTSNGLIQKGSAPVEYPSIHCSYPQGYLVNASGSLSMWGSQTWTNPTWSSQTWTNPTWNNQTWTNPTWSSQAWTAQSWNGQPWNAAPLHNFGEDFLQPYVQLQQNFSASDLEVNLEATRESHAHFSTPQALELFLNYSVTPPGEI
notes: NANOG, mouse, full length; Forms multimers by the BASIL assay; the size of the oligomer is not measured here; also called purified NANOG; rNANOG
binding result: binds
